This note sets out measurements from article PMC4072576 (Molecular Biology of the Cell, 2014).

In this assay the target is F-actin (rabbit muscle actin) (rabbit, UniProt P68135 1-377). In words: co-sedimentation.

B1: His-ctxI (recombinant N-terminal His-tagged cortexillin I) (natural protein)
chain: MAGKDWEIVQEKAFTAWVNSVLDKRGEKISDVGKDLSDGVKLIFFLELISSKKFNKKYDFEPKARINMIQNVALALKFLDEELKIKVQGIGSEDFVDNNKKMILGFLWTLYRKYRIAVISEGDKSSEEGLLLWCKNTTTGYDGVNITSFTKSFRDGLAFLALSHKFEPESFKFQEFEAMDPIARLNAAFDFAEKGLGVPKLLEAEEVMRGTTDERSLVLYTSLFFHAYRAKEEKARLESSKNEMANRLAGLENSLESEKVSREQLIKQKDQLNSLLASLESEGAEREKRLRELEAKLDETLKNLELEKLARMELEARLAKTEKDRAILELKLAEAIDEKSKLEQQIEATRIRGAAEAQGLGLLRKNLDTHVHDLLKWQKLTMENSSSSSIDDQIIVEVSGLPFGEQVKHLATKLEAENLAIMKLLNQKEDDLKAQKLKSSKSKK
For the molecule B1, the Kd is around 200 nM and the “stoichiometry N” value is ~4 actin subunits per ctxI homodimer.

B2: His-ctxII (recombinant N-terminal His-tagged cortexillin II) (natural protein)
chain: MDLNKEWEKVQEMAFTSWVNSVLEKRGCDKISDVSTDLSDGVKLIYFLESVSGKKFPKKFDLEPKTRIMRVQNLHLAMLFIDEDLKIKVQGVAAEEFVDNNKKMILGFLWTLYRKYRISVINEGDKSSEEGLLAWCKKTTEGYNNVNITGFKSSFRDGHGFLALAHKYDPTVFKYDEYEGHDNIARLNAAFDFAEKGLGIPKLLEAESLSKGNVDERSIVLYTSLFFHAFRAKEEREALEASQNSLNNKLASLEQSLEGEKHSQEELVKQKKDLEDALNKIREQNDNRNSRITDLQSKIDDALRGLDDEKLAKLDLESRLAKCEKDKAILELKLAEILDEKDRLEKKIDEDKKRAEAERLGLGLIRQHLAAQFSDIHKWQSFLEHPETVPYTGTPVDLDSELSSLSFEEQAKKLASKLESENILIEKYLNGKEEAKAAAKK
Regarding B2, the binding result is listed as “binds”.

One may read the Kd as the free concentration of one partner at which half of the binding sites on the other are occupied at equilibrium, for simple one-to-one binding.
